Measured values from the nanobody polyreactivity screen of Harvey et al. (2022).

assay: yeast display, Sf9 membrane polyspecificity reagent, FACS + sequencing; frameworks hold sequencing errors
Procedure, shortened: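 Galactose-induced (36–48 hours) yeast carrying a synthetic nanobody display library were exposed to 10% biotinylated, detergent-solubilized Sf9 membrane reagent at 4 °C for 1 hour. FACS followed streptavidin microbead enrichment, using low and high (top ~1%) gates for expression (anti-HA) and reagent binding (streptavidin). Colony PCR, MiSeq 2 × 250 sequencing and CDR-length filtering followed. Labels for polyreactivity reflect the gate of origin.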

Sequence | polyreactivity (PSR sort gate)
QVQLVESGGALVQAGGSLRLSCAASGFTFRSYVMGWYRQAPGKERELVAAISGSGASTYYADSVKGRFTLSRDNAKNTVYLQMNSLKPEDTAVYYCAATSPYKYWYRYNYWGHGTQVTVSS | high polyreactivity
QVQLVESGGALVQAGGSLRLSCAASGFTFTINDMGWYRQAPGKERELVATINDSAGSTYYADSVKGRFTISRDNAKNTVYLQMNSQKPDATAVYYCNAYKATRWFEYVYWGQGTQVTVSS | low polyreactivity
QVQLVESGGALVQAGGSLRLSCAASGIIFWLYDMGWSRQAPGKERELVAVMTWSGDSTYADSVKGRFTISRDNAKNTVYLQMNSLKPEDNAVYYCAAREYYRKPYDHWGQGTQVTVSS | high polyreactivity
QVQLVESGGALVQAGGSLRLSCAASGIVFKRYAMGWYRQAPGKEREFVATISYTGGRTYYADSVKGRFTISRDNAKNTVYLQMNSLKPEDTAVYYCATLYRSSKHQPLDYWGQGTQVNVSS | high polyreactivity
QVQLVESGGALVQAGGSLRLSCAASGRIFRSYVMGWYRQAPGKERELVATITGGGRTNYADSVKGRFTISRDNAKNTVYLQMTSLKPEDTAVYYCAGVYRWWPFHAFDYWGQGTQVTVSS | high polyreactivity
QVQLVESGGALVQAGGSLRLSCAASGSIFGEYTMGWYRQAPGKEWELVAAIRSGGDTYYADSVKGRFTLSRDKAKNTVYLQMNSLKPEDTAVYYCNAYWVRHYIMDYWGQGTQVTVSS | low polyreactivity
QVQLVESGGALVQAGGSLRLSCAASGSIFYTNAMGWYRQAPGKERELVAAIRWSGGRTYYADSVKGRFTISRDNAKNTVYLQMNSLKPEDTAVYYCNKVPRTPIPYKYGDWGQGTHVTVSS | high polyreactivity
QVQLVESGGALVQAGGSLRLSCAASGSLFERYAMGWYRQAPVKEREFVATITSGGGRTYYADSVKGRFTISRDNAKNTVYLQMNSLQPEDTAVYYCTAVYRARSYDYWGQGTQVTVSS | high polyreactivity
QVQLVESGGALVQAGGSLRLSCAASGSTFEDYAMRSSRQAPGKARELVAAISHIGGSTYYADSVKGRFTISRDNAKNTVYLQMNSLKPEDTAVYYCAKGVYSDLGYWAQGTQVTVSS | low polyreactivity
QVQLVESGGALVQAGGSLRLSCAASGSTFFINAMGWYRQAPGKERELVAAITSTDSTTYADSVKGRFTISRDNAKNTVYLQMNSLKPEDTAVYYCAKESIGQDPVSGAWARHEYDYWGQGTQVTVSS | low polyreactivity
QVQLVESGGALVQAGGSLRLSCAASGSTFRYYAMGWYRQAPGKERELVAAIRWSGDSTYYADSVKGRFTISRDNAKNTVYLQMNSLKPEDTAVYYCAADRQRSHRVGTKGHRVGYWGQGTQVSVSS | high polyreactivity
QVQLVESGGALVQAGGSLRLSCAASGSTFVQNAMGWYRQAPGKDRELVAAITIGGGSTYYADSVKGRFTISRDNAKNTVYLQMNSLKPEDTAVYYCAVEVGNPQLAYSYDYWGQGTQVTVSS | low polyreactivity
QVQLVESGGALVQAGGSLRLSCAASGSTFYWNTMGWYRQAPGKERELVASITRGGSTYYADSVKGRFTISRDNAKNTVYLQMNSLKPEDSAVYYCNVLAWSYGYRYYSWGQGTQVTVSS | high polyreactivity
QVQLVESGGALVQAGGSLRLSCAASGTTFHSYPMGWYRQAPGKERELVAAISNGGRTNYADSVNGRFTISRDNAKNTVYLQMNSLKPVDTAVYYCAVRLYRDSSYYYWGQGTQVTVSS | low polyreactivity
QVQLVESGGALVQARGSLRLSCSASGSTFFHNFKGWYRQEPGKERELVAAISGSGTRSYYADSVKGRFTISRDNAKNTVYLQMNSLKPEDTAVYYCNVVPLRVPSYLPKYYYWGQGTQVTVSS | high polyreactivity
QVQLVESGGALVQEGGSHRLSCAASRRIFVVYAMGWYRQAPGKERELVAAISKRRGSTYYADSVKGRFTISRYNAKNTVYLQMKSQKPEDTAVYYCAVEGVIWSFWPYEYWGQGTQVTVSS | high polyreactivity
QVQLVESGGALVQEGRSLRLSCAASGGTFADYPMGWYRQAPVKERELVAAITNGGSTFYADSVKGRFTSSRDNATNTVYLQMNSLKPDDTAVYYWSAVYLYAYSPYFSAVEMYYWGQGSQVTVSS | low polyreactivity
QVQLVESGGCIVQAGGSLRLSCAASGSIFTYNAMGWYRQAPGKERELVAAISASGGRTYYADSVKGRFTISRDNAKNTVYLQMNSLKPEDTAVYYCAARILVYGLRRFDYWGQGTQVNVSS | high polyreactivity
QVQLVESGGCIVQAGGSLRLSSPASGRNFTRYGKGWDRQAPRKERELVAAISKSTGNTYYADCVKGRFTISRDFAKNTVYLQMNSLKPEDTAVYYCAASKNKRPPYDYWGQGTQVNVSS | high polyreactivity
QVQLVESGGCLFQEGGSLRLSCSASGRIFNTYAMVWYRQAPGKERELVARISSGGTTYYADSVKGRFTISRDNAKNTVYLQMNSLKPEDTAVYFCNVRAVTPTRSRPFRYDYWGQGTQVTVSS | high polyreactivity
QVQLVESGGCLLQAGGSLSLSCAASGSTSPANTMGWYRQAPGKEREFVAGISRRGGRTYYADSVKGRFTISRDTAKNTVYLQMNSLKPEDTAVYYSATALIVRGPSRYEYWGHGTQVTVSS | high polyreactivity
QVQLVESGGCLVKAGGSLRLSCAASGSIFGHYAMGWYRQAPGKERELVASIDSGGRTNYADSVKGRFTISLDNAKNTVYLQMISLKPEDTGVYYCNTTSVKTRGYGYWGQGSQVTVSS | low polyreactivity

Sequence | polyreactivity (PSR sort gate)
QVQLVESGGCLVKAGGSLRLSSAASGSTFYYYAMGWYRQAPGKERELVAAITVNGGSTYYADSVKGRFTISRDNANNTVYLQMNSLKPGVTAVYYCAADDTYWVYPYTYSTYEYWGQGNQVTVSS | low polyreactivity
QVQLVESGGCLVQAGASLRLSCAASGSISKSYAMGWYRQAPGKEREFVAAISWRGGSTYADSVKGRFTISRDNAKNTVYLQMNSLKPEDTAVYYCAATNYGTFWGGQSERYDYWGQGSQVTVSS | low polyreactivity
QVQLVESGGCLVQAGGSHRLSCAASGLTFPKYAMGWYRQAPGKERELVARISYSGASTYYADSVKGRFTISRDNAKNTVYLHMNSLKPEDTAVYYCYARIYRVFYVHFAPYYYWGQGTQVTVSS | high polyreactivity
QVQLVESGGCLVQAGGSLRLICAASGNTFYVYAMGWYRQAPGKERELVAAITWSGGSTNYADSVKGRYTISRDNAKNTVYLQMNSLKPEDSAVYYCKADYWTFSPYDYWGQGTQVTVSS | low polyreactivity
QVQLVESGGCLVQAGGSLRLICAASGSIFDYNAMGWYRQAPGKERELVADITLSDDSTYYADSVKGRFTISRDNAKNTVYLQKNSLKPEDTAVYYCAADIKYYWYYYYWAYAYDYWGQGTQVTVSS | high polyreactivity
QVQLVESGGCLVQAGGSLRLICAASVSIFYYYAMGWYRQAPGKERELVATIRSSDGSTYYADSVKGRFTISRDNAKNTVYLQMYSLKPEDTAVYYCAHGYFRYDYWGQGTQVSVSS | low polyreactivity
QVQLVESGGCLVQAGGSLRLRCAASGPNFPGYTKGWYRHAPRKAREFVAAISYSGGSTYADSVKGRFTISRDNAKNTVYLQMNSLKPEDTSVYYCAVFLQHWLDMYYWGQGTQVNVSS | low polyreactivity
QVQLVESGGCLVQAGGSLRLSCAASGFIFRYNAMGWYRQAPGKERELVAAISWSGTTYYADSVKGRFTISRDNAKNTVYLQMNSLKPEDTAVFYCAAGRLFYGYRDFDYWGQGTQVTVSS | low polyreactivity
QVQLVESGGCLVQAGGSLRLSCAASGFTFSDNSMGWYRQAHGKERELVATISQSSGSTSYADSLKGRFTISRDNAKNTVYLQMNSLKPEDTAVYYCAKRRLFYWGLGTQVTVSS | low polyreactivity
QVQLVESGGCLVQAGGSLRLSCAASGFTFTTYAMGWYRQAPGKEREFVAALTKRGGRTYYADSVKGRFTISRDNAKITVYLQMNSLKPEDTAVYYCNKVVHSFPFPYRYDMDYWGQGTQVTVSS | high polyreactivity
QVQLVESGGCLVQAGGSLRLSCAASGFTFVRNAMGWYRQAPGKDRELVAAISGSGGRTYYADSVKGRFTISRDNAKNTVYLQMNSVKPEDTAVYYCNTASAYEYEYWGQGSQVTVSS | high polyreactivity
QVQLVESGGCLVQAGGSLRLSCAASGFTLTGNAMGWYRQAPGKERELVADISNSGGTTNYADSVKGRFTISRDNAKNTVYLQMNSLKPDDSAVYYCAADVSYRNIGLEYWGQGTQVTVSS | high polyreactivity
QVQLVESGGCLVQAGGSLRLSCAASGGIFGKYAMGWYRQAPGKESELVAAITWNGVSTYYADSVKGRFTISRDNAKNTVYLQMNSLKPEDTAVYYCAKASLPYRPDSTPDRRYDYWGQGTQVTVSS | high polyreactivity
QVQLVESGGCLVQAGGSLRLSCAASGGIFSYNAMGWYRQAPGKERELVAAISYSGGNTYYADSVKGRFTISRDNAKNTVYLQMNSLKPEDTAVYYCAATGYYNWYTSGYWGQGTQVTVSS | high polyreactivity
QVQLVESGGCLVQAGGSLRLSCAASGHIFTFYAMGWYRQAPGKERELVATIRWSGGSTYYADSVKGRFTISRDNAKNTVYLQMNSLKPEDTAVYYCAATYYPSSYVQRLDYWGQGTQVTVSS | low polyreactivity
QVQLVESGGCLVQAGGSLRLSCAASGIIFQQYAMGWYRQAPGKARELVAAITYSGDGTYYADSVKGRFTISRDNAKNTVYLQMNSLKPEDTAVYDCAAYPRDPYKEYDYWGQGTQVTVSS | low polyreactivity
QVQLVESGGCLVQAGGSLRLSCAASGIIFTYYAMGWSRQAPGKESELVARISSSGGRTYYADSVKGRVTISRDNGKNTVYLQMNSLNPEDTAVYYCAAAIVSYGRNDYWGQGTQVTVSS | high polyreactivity
QVQLVESGGCLVQAGGSLRLSCAASGITFRRYTMGWYRQAPGKERELVATISLSDGNTYYADSVKGRFTISRDNAKNSVYLQMNSLKPEDTAVYYCNADSTTQVYDYWGQGTQVTVSS | low polyreactivity
QVQLVESGGCLVQAGGSLRLSCAASGLIFRKYARGWSRQAPGKERELVAAISVSGGSTYYADSVKGRFTISRDNAKNTVYLQMNSLKPEDTAVYYCAATDFGRRGGSFYYWGQGTQVTVSS | high polyreactivity
QVQLVESGGCLVQAGGSLRLSCAASGLNFSKNVKGWYIQAPGKERELVAAISQRGGSTYYADSVKGRFTISRDYAKNTVYLQMNSLKPEDTAVYYCAADTTVSHEDYWGQGTQVTVSS | low polyreactivity
QVQLVESGGCLVQAGGSLRLSCAASGLTIFVNAMGWYRQAPGKERELVATISGGGSTYYADSVKGRFTISRDNAKNTVYLQMNSLKPEDTAVYYCNGGGYGLRGDYWGQGTQVTVSS | low polyreactivity
